Data: patent publication US20220106391A1 (ZOETIS SERVICES, published 2022)

T1: canine beta-NGF (cNGF) (canine, UniProt Q29074 110-229 (pig entry))
T1 construct: also called canine NGF; can NGF
T1 chain: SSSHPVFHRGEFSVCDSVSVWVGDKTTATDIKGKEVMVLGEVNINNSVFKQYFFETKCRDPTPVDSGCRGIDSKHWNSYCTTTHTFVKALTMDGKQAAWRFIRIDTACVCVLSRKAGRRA

T2: feline NGF (feline)
T2 chain: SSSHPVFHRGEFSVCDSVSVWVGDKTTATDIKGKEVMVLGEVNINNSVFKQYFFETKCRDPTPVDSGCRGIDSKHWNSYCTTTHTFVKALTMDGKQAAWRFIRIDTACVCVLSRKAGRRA

B1: 182m114 (antibody, V domains shown)
VH: EVQLVESGGDLARPGGSLKLSCVVSGFTLTQYGINWVRQAPGKGLQWVTVIWATGATDYNSALKSRFTVSRDNAMNTVYLQMNSLRVEDTAVYYCARDGWWYATSWYFDVWGQGTLVTVSS
VL: DIVMTQTPLSLSVSPGEPASISCKASQDINHYLNWFRQKPDGTVKLLIYYTASLHQGVPSRFSGSGSGTDFTLRISRVEADDAGVYYCQQGDHFPRTFGQGT
notes: 51 except in CDR2 (TASLHQ); 51 (CDR2 Pos. 1-6 = residues 51-56); also called Can-182-m114
B2: H3AQC2301B12LC (antibody, V domains shown)
VH: EVQLVESGGDLARPGGSLKLSCVVSGFTLTQYGINWVRQAPGKGLQWVTVIWATGATDYNSALKSRFTVSRDNAMNTVYLQMNSLRVEDTAVYYCARDGWWYATSWYFDVWGQGTLVTVSS
VL: DIVMTQTPLSLSVSPGEPASISCRASQDISNYLNWFRQKPDGTVKLLIYYTSRLHSGVPSRFSGSGSGTDFTLRISRVEADDAGVYYCQQGSTLPRTFGQGT
notes: Caninized IgG, light chain QC2301B12VK
B3: H3AQC2301B12L2AL1 (antibody, V domains shown)
VH: EVQLVESGGDLARPGGSLKLSCVVSGFTLTQYGINWVRQAPGKGLQWVTVIWATGATDYNSALKSRFTVSRDNAMNTVYLQMNSLRVEDTAVYYCARDGWWYATSWYFDVWGQGTLVTVSS
VL: DIVMTQTPLSLSVSPGEPASISCKASQSINHYLNWFRQKPDGTVKLLIYYTSRLHSGVPSRFSGSGSGTDFTLRISRVEADDAGVYYCQQGSTLPRTFGQGT
notes: Caninized IgG
B4: H1-23L3K36 (antibody, V domains shown)
VH: DVQLVESGGDLVQPGGSLRLTCVASGFTLTQYGINWVRQAPGKGLQWVAVIWATGATDYNSALKSRFTISRDNAKNTLYLQMNSLKTEDTATYYCARDGWWYATSWYFDVWGQGALVTVSS
VL: DIVMTQTPLSLPVTPGEPASISCKASQDINHYLNWYLQKPGQSPRLLIYYTSRLHSGVPSRFSGSGSGTDFTLRISSVEADDVGVYYCQQGDHFPRTFGQGT
notes: also called ZTS-082-1C
B5: 182m72 (antibody, V domains shown)
VH: EVQLVESGGDLARPGGSLKLSCVVSGFTLTQYGINWVRQAPGKGLQWVTVIWATGATDYNSALKSRFTVSRDNAMNTVYLQMNSLRVEDTAVYYCARDGWWYATSWYFDVWGQGTLVTVSS
VL: DIVMTQTPLSLSVSPGEPASISCKASQDINHYLNWFRQKPDGTVKLLIYYTSSLHQGVPSRFSGSGSGTDFTLRISRVEADDAGVYYCQQGDHFPRTFGQGT
notes: 51 except in CDR2 (TSSLHQ); 51 (CDR2 Pos. 1-6 = residues 51-56); also called Can-182-m72
B6: H3AQC2301B12L6AL2 (antibody, V domains shown)
VH: EVQLVESGGDLARPGGSLKLSCVVSGFTLTQYGINWVRQAPGKGLQWVTVIWATGATDYNSALKSRFTVSRDNAMNTVYLQMNSLRVEDTAVYYCARDGWWYATSWYFDVWGQGTLVTVSS
VL: DIVMTQTPLSLSVSPGEPASISCRASQDISNYLNWFRQKPDGTVKLLIYYVTSLHAGVPSRFSGSGSGTDFTLRISRVEADDAGVYYCQQGSTLPRTFGQGT
B7: H3AQC2301B12L5AL2 (antibody, V domains shown)
VH: EVQLVESGGDLARPGGSLKLSCVVSGFTLTQYGINWVRQAPGKGLQWVTVIWATGATDYNSALKSRFTVSRDNAMNTVYLQMNSLRVEDTAVYYCARDGWWYATSWYFDVWGQGTLVTVSS
VL: DIVMTQTPLSLSVSPGEPASISCRASQDISNYLNWFRQKPDGTVKLLIYYTSSLHSGVPSRFSGSGSGTDFTLRISRVEADDAGVYYCQQGSTLPRTFGQGT
notes: Caninized IgG
B8: 182m70 (antibody, V domains shown)
VH: EVQLVESGGDLARPGGSLKLSCVVSGFTLTQYGINWVRQAPGKGLQWVTVIWATGATDYNSALKSRFTVSRDNAMNTVYLQMNSLRVEDTAVYYCARDGWWYATSWYFDVWGQGTLVTVSS
VL: DIVMTQTPLSLSVSPGEPASISCKASQDINHYLNWFRQKPDGTVKLLIYYTSSLHGGVPSRFSGSGSGTDFTLRISRVEADDAGVYYCQQGDHFPRTFGQGT
notes: 51 except in CDR2 (TSSLHG); 51 (CDR2 Pos. 1-6 = residues 51-56); also called Can-182-m70
B9: 182m43 (antibody, V domains shown)
VH: EVQLVESGGDLARPGGSLKLSCVVSGFTLTQYGINWVRQAPGKGLQWVTVIWATGATDYNSALKSRFTVSRDNAMNTVYLQMNSLRVEDTAVYYCARDGWWYATSWYFDVWGQGTLVTVSS
VL: DIVMTQTPLSLSVSPGEPASISCKASQDINHYLNWFRQKPDGTVKLLIYYTHSLHNGVPSRFSGSGSGTDFTLRISRVEADDAGVYYCQQGDHFPRTFGQGT
notes: 51 except in CDR2 (THSLHN); 51 as printed; also called Can-182-m43
B10: H3AQC2301B12L1AL1 (antibody, V domains shown)
VH: EVQLVESGGDLARPGGSLKLSCVVSGFTLTQYGINWVRQAPGKGLQWVTVIWATGATDYNSALKSRFTVSRDNAMNTVYLQMNSLRVEDTAVYYCARDGWWYATSWYFDVWGQGTLVTVSS
VL: DIVMTQTPLSLSVSPGEPASISCKASQSINHYLNWFRQKPDGTVKLLIYYTSRLHSGVPSRFSGSGSGTDFTLRISRVEADDAGVYYCQQGSTLPRTFGQGT
notes: Caninized IgG

Legend:
canine beta-NGF (cNGF) [1] = target: T1, canine beta-NGF (cNGF); experiment: SPR (Biacore), cNGF binding; KD column of Table 7
canine beta-NGF (cNGF) [2] = target: T1, canine beta-NGF (cNGF); experiment: SPR (Biacore), cNGF binding
canine beta-NGF (cNGF) [3] = target: T1, canine beta-NGF (cNGF); experiment: cell-based or functional assay
canine beta-NGF (cNGF) [4] = target: T1, canine beta-NGF (cNGF); experiment: SPR (Biacore)
NGF (species not stated) = experiment: cell-based or functional assay
feline NGF = target: T2, feline NGF; experiment: SPR, Biacore 3000, feline NGF
Procedure: Affinities of selected felinized anti-NGF antibody to feline NGF were measured using SPR (Surface Plasmon Resonance), Biacore 3000. Kinetics of association and dissociation of a felinized mAb with/from feline NGF were measured at different concentrations.

Binder	Kd (canine beta-NGF (cNGF) [1]) [nM]	Kd (canine beta-NGF (cNGF) [2]) [nM]	koff (canine beta-NGF (cNGF) [2]) [s⁻¹]	kon (canine beta-NGF (cNGF) [2]) [M⁻¹ s⁻¹]	IC50 [nM] (TrkA cell based assay) (canine beta-NGF (cNGF) [3])	Kd (canine beta-NGF (cNGF) [4]) [nM]	also measured
B1	0.707	0.707	1.27e-06	1790	–	–	–
B2	–	–	–	–	0.8	1.13	–
B3	–	–	–	–	0.99	0.435	–
B4	–	–	–	–	–	–	IC50 (nM) (pERK-1/2, cell line expressing human TrkA) (NGF (species not stated)): 1.3 nM; Kd (feline NGF): 0.916 nM
B5	0.0741	0.0741	2.79e-07	3760	–	–	–
B6	–	–	–	–	10	–	–
B7	–	–	–	–	9.7	12.5	–
B8	4.9	4.9	9.46e-06	1930	–	–	–
B9	4.32	4.32	3.32e-06	769	–	–	–
B10	–	–	–	–	0.65	1.07	–
